Numbering of substitutions follows the chain as printed. Names may count otherwise. Like-named read-outs stand apart in the source and are kept apart here.
T1: human FcγRIIa R allotype extracellular domain with C-terminal His-tag (human, UniProt P12318 34-217)
T1 construct: extracellular domain; also called hFcγR IIa R
T1 sequence (looked up): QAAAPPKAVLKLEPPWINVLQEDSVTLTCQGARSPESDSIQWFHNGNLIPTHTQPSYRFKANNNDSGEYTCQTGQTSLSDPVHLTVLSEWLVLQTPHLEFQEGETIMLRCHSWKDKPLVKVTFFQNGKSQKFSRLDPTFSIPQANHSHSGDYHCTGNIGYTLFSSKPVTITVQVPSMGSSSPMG

T2: human FcγRIIa H allotype extracellular domain with C-terminal His-tag (human, UniProt P12318 34-217)
T2 construct: extracellular domain; also called hFcγR IIa H
T2 sequence (looked up): T1 sequence (looked up) with R134H

T3: human FcγRIIb extracellular domain with C-terminal His-tag (human, UniProt P31994 43-217)
T3 construct: extracellular domain; also called hFcγR IIb
T3 sequence (looked up): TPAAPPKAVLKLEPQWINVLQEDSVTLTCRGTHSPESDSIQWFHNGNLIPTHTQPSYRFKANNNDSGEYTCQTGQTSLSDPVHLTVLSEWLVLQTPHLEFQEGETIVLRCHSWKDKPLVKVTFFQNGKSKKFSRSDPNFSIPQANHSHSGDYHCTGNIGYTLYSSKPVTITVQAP

B1: 04H1654-KT462/04L1610-lam1//04H1656-HT441/04L1610-lam1 (antibody, human IgG1, lambda)
heavy 1: QVQLVESGGGVVQPGGSLRLSCAASGFTFSSKTMNWVRQAPGKGLEWVSSISTQSHYIYYARSVRGRFTISRDNAKNSLYLQMNSLRAEDTAVYYCARYGKREDMLWVFDYWGQGTLVTVSSASTKGPSVFPLAPSSKSTSGGTAALGCLVKDYFPEPVTVSWNSGALTSGVHTFPAVLQSSGLYSLSSVVTVPSSSLGTQTYICNVNHKPSNTKVDKRVEPKSCDKTHTCPPCPAPEFQWGPMVFLFPPKPKDVLMISRTPEVTCVVVDVSDEEPEVKFNWYVDGVEVHNAKTKPREEQYNATYRVVSVLPVLHQDWLNGKEYKCKVSNDALPAPIEKTISKAKGQPREPQVYTLPPSRKEMTKNQVSLTCLVKGFYPSDIAVEWESNGQPENNYKTTPPVLDSDGSFFLYSKLTVDKSRWQQGNVFSCSVMHEALHNHYTQKSLSLSP
heavy 2: B1 heavy 1 with R62E, K101A, F239L, Q240L, W241A, M244S, D273H, K339E, K361E, K444E
light: QSALTQPPSASGSPGQSVTISCEGPSTGVGDYNWVHWYQQHPGKAPKLMIYFTSKKPSGVPDRFSGSKSGNTASLTVSGLQAEDEADYYCQTYAAPLGPMFGGGTKLTVLGQPKAAPSVTLFPPSSEELQANKATLVCLISDFYPGAVTVAWKADSSPVKAGVETTTPSKQSNNKYAASSYLSLTPEQWKSHRSYSCQVTHEGSTVEKTVAPTECS
notes: Heterodimerized antibody
B2: 04H1654-KT473/04L1610-lam1//04H1656-HT451/04L1610-lam1 (antibody)
heavy 1: B1 heavy 1 with N439A, Y441T, Q443R, S445E
heavy 2: QVQLVESGGGVVQPGGSLRLSCAASGFTFSSKTMNWVRQAPGKGLEWVSSISTQSHYIYYAESVRGRFTISRDNAKNSLYLQMNSLRAEDTAVYYCARYGAREDMLWVFDYWGQGTLVTVSSASTKGPSVFPLAPSSKSTSGGTAALGCLVKDYFPEPVTVSWNSGALTSGVHTFPAVLQSSGLYSLSSVVTVPSSSLGTQTYICNVNHKPSNTKVDKRVEPKSCDKTHTCPPCPAPELLAGPSVFLFPPKPKDVLMISRTPEVTCVVVDVSHEEPEVKFNWYVDGVEVHNAKTKPREEQYNATYRVVSVLPVLHQDWLNGKEYKCKVSNDALPAPIEETISKAKGQPREPQVYTLPPSREEMTKNQVSLTCLVKGFYPSDIAVEWESNGQPENNYKTTPPVLDSDGSFFLYSKLTVDKSRWQQGNVFSCSVMHEALHAHTTREELSLSP
light: B1 light
notes: Heterodimerized antibody with N434A/Y436T/Q438R/S440E; also called SW1610-ART5+ACT1
B3: 04H1389-Km473/04L1305-k0MT//04H1389-Hm451/04L1305-k0MT (antibody)
heavy 1: EVQLVESGGGLVKPGGSLRLSCAASGFTFSSKTMNWVRQAPGKGLEWVSSISTQSHYIYYAESVKGRFTISRDNAKNSLYLQMNSLRAEDTAVYYCARYGKREDMLWVFDYWGQGTLVTVSSASTKGPSVFPLAPSSKSTSGGTAALGCLVKDYFPEPVTVSWNSGALTSGVHTFPAVLQSSGLYSLSSVVTVPSSSLGTQTYICNVNHKPSNTKVDKRVEPKSCDKTHTCPPCPAPEFQWGPMVFLFPPKPKDVLMISRTPEVTCVVVDVSDEEPEVKFNWYVDGVEVHNAKTKPREEQYNATYRVVSVLPVLHQDWLNGKEYKCKVSNDALPAPIEKTISKAKGQPREPQVCTLPPSREEMTKNQVSLWCLVKGFYPSDIAVEWESNGQPENNYKTTPPVLDSDGSFFLYSKLTVDKSRWQQGNVFSCSVMHEALHAHTTRKELSLSP
heavy 2: B2 heavy 2 with Q1E, V11L, Q13K, R65K, A101K, E361C, T371S, L373A, Y412V, E444K
light: DIVMTQSPLSLPVTPGEPASISCDGPSTGVGDYNYVHWYQQKPGQAPRLLIYFTSKKPSGVPDRFSGSGSGTDFTLKISRVEAEDVGVYYCQTYAAPLGPMFGQGTKLEIKRTVAAPSVFIFPPSDEQLKSGTASVVCLLNNFYPREAKVQWKVDNALQSGNSQESVTEQDSKDSTYSLSSTLTLSKADYEKHKVYACEVTHQGLSSPVTKSFNRGEC
notes: Heterodimerized antibody; also called SW1389-ART5+ACT1
B4: 04H1389-Km473/04L1305-k0MT//04H1389-Hm482/04L1305-k0MT (antibody)
heavy 1: B3 heavy 1
heavy 2: EVQLVESGGGLVKPGGSLRLSCAASGFTFSSKTMNWVRQAPGKGLEWVSSISTQSHYIYYAESVKGRFTISRDNAKNSLYLQMNSLRAEDTAVYYCARYGKREDMLWVFDYWGQGTLVTVSSASTKGPSVFPLAPSSKSTSGGTAALGCLVKDYFPEPVTVSWNSGALTSGVHTFPAVLQSSGLYSLSSVVTVPSSSLGTQTYICNVNHKPSNTKVDKRVEPKSCDKTHTCPPCPAPELLAGPSVFLFPPKPKDVLMISRTPEVTCVVVDVSHEEPEVKFNWYVDGVEVHNAKTKPREEQYNATYRVVSVLPVLHQDWLNGKEYKCKVSNDALPKPDEETISKAKGQPREPQVYTLPPSRCEMTKNQVSLSCAVKGFYPSDIAVEWESNGQPENNYKTTPPVLDSDGSFFLVSKLTVDKSRWQQGNVFSCSVMHEALHAHTTRKELSLSP
light: B3 light
notes: Heterodimerized antibody; also called SW1389-ART6+ACT1

Legend:
[1] = target: T1, human FcγRIIa R allotype extracellular …; assay: SPR; KD of 04H1656-G1m/04L1610-lam1 divided by KD of variant
[2] = target: T4, human FcγRIIIa V allotype extracellular domain with C-terminal His-tag (human, UniProt P08637 17-208); assay: as above
T4 construct: extracellular domain; also called hFcγR IIIa V
T4 sequence (P08637 17-208 F176V): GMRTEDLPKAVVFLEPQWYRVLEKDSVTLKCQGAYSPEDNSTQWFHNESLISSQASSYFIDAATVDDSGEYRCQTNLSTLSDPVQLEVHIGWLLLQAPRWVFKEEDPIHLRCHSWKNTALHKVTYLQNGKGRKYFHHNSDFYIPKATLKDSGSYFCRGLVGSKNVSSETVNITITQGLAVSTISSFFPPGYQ

[3] = target: T5, human FcγRIa extracellular domain with C-terminal His-tag (human, UniProt P12314 16-292); assay: as above
T5 construct: extracellular domain; also called hFcγR Ia; hFcγRIa
T5 sequence (P12314 16-292): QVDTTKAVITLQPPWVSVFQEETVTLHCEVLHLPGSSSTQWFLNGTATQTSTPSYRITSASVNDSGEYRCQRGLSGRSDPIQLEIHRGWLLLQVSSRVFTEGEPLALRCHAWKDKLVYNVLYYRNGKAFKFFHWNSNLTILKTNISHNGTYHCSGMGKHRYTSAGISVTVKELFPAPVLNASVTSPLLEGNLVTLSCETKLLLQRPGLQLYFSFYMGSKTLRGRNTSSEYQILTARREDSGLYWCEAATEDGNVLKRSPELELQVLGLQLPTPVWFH

[4] = target: T2, human FcγRIIa H allotype extracellular …; assay: as above
[5] = target: T6, human FcγRIIIa F allotype extracellular domain with C-terminal His-tag (human, UniProt P08637 17-208); assay: as above
T6 construct: extracellular domain; also called hFcγR IIIa F
T6 sequence (P08637 17-208): as the sequence (P08637 17-208 F176V) above, with V160F counted along it

[6] = target: T7, human FcRn (human, UniProt P55899 24-290; P61769 21-119); assay: as above
T7 construct: Prepared by the method of WO 2010/107110; also called hFcRn

[7] = target: T1, human FcγRIIa R allotype extracellular …; assay: SPR Biacore T200, captured Ab, pH 7.4
Method: (§1) The interaction between the generated antibodies and human FcγRs was analyzed by the following method using Biacore T200. 50 mM Na-Phosphate, 150 mM NaCl, 0.05% Tween20 (pH 7.4) was used as the running buffer, and the assay was performed at 25° C. For the sensor chips, Series S SA (GE Healthcare) chips onto which CaptureSelect Human Fab-lambda Kinetics Biotin Conjugate (Thermo Fisher Scientific) was immobilized were used. The antibodies of interest were captured onto these chips and each FcγR diluted in the running buffer was allowed to interact with them. Chips were regenerated with 10 mM Glycine-HCl (pH 1.5) and 25 mM NaOH, and assay was performed by repeatedly capturing antibodies. The dissociation constants KD (mol/L) for FcγRs of each antibody were calculated using Biacore T200 Evaluation Software 2.0, using the 1:1 Langmuir binding model for FcγRIa and FcγRIIIa and the steady state affinity model for FcγRIIa. For FcγRIIb, the binding amount of FcγRIIb per unit amount of antibody was calculated by correcting the binding amount of FcγRIIb obtained from the sensorgram obtained by the measurement with the amount of antibody captured onto the chip surface.

[8] = target: T4, human FcγRIIIa V allotype extracellular …; assay: SPR Biacore T200, captured Ab, pH 7.4
Method: as §1

[9] = target: T5, human FcγRIa extracellular domain with …; assay: SPR Biacore T200, captured Ab, pH 7.4
Method: as §1

[10] = target: T2, human FcγRIIa H allotype extracellular …; assay: SPR Biacore T200, captured Ab, pH 7.4
Method: as §1

[11] = target: T6, human FcγRIIIa F allotype extracellular …; assay: SPR Biacore T200, captured Ab, pH 7.4
Method: as §1

[12] = target: T3, human FcγRIIb extracellular domain with …; assay: SPR; FcγRIIb bound amount per unit captured Ab
Method: as §1

[13] = target: T3, human FcγRIIb extracellular domain with …; assay: SPR; binding amount divided by that of 04H1656-G1m/04L1610-lam1
[14] = target: T7, human FcRn; assay: SPR Biacore T200, captured Ab, pH 6.0, steady state
Method: The interaction between the generated antibodies and human FcRn was analyzed by the following method using Biacore T200. 50 mM Na-Phosphate, 150 mM NaCl, 0.05% Tween20 (pH 6.0) was used as the running buffer, and the assay was performed at 25° C. For the sensor chip, Series S SA (GE Healthcare) chips onto which CaptureSelect Human Fab-lambda Kinetics Biotin Conjugate (Thermo Fisher Scientific) was immobilized were used. The antibodies of interest were captured onto these chips and FcRn diluted in the running buffer was allowed to interact with them. Chips were regenerated with 10 mM Glycine-HCl (pH 1.5) and 25 mM NaOH, and assay was performed by repeatedly capturing antibodies. The dissociation constant for FcRn of each antibody was calculated using the steady state model, using Biacore T200 Evaluation Software 2.0.

[15] = target: T1, human FcγRIIa R allotype extracellular …; assay: SPR Biacore T200, captured Ab, pH 7.4; remark: listed apart in the source
[16] = target: T4, human FcγRIIIa V allotype extracellular …; assay: SPR Biacore T200, captured Ab, pH 7.4; remark: listed apart in the source
[17] = target: T5, human FcγRIa extracellular domain with …; assay: SPR Biacore T200, captured Ab, pH 7.4; remark: listed apart in the source
[18] = target: T2, human FcγRIIa H allotype extracellular …; assay: SPR Biacore T200, captured Ab, pH 7.4; remark: listed apart in the source
[19] = target: T6, human FcγRIIIa F allotype extracellular …; assay: SPR Biacore T200, captured Ab, pH 7.4; remark: listed apart in the source
[20] = target: T3, human FcγRIIb extracellular domain with …; assay: SPR; FcγRIIb bound amount per unit captured Ab; remark: listed apart in the source
[21] = target: T3, human FcγRIIb extracellular domain with …; assay: SPR; binding amount divided by that of 04H1389-G1m/04L1305-k0MT
[22] = target: T7, human FcRn; assay: SPR Biacore T200, captured Ab, pH 6.0, steady state; remark: listed apart in the source
[23] = target: T1, human FcγRIIa R allotype extracellular …; assay: SPR; KD of 04H1389-G1m/04L1305-k0MT divided by KD of variant
[24] = target: T4, human FcγRIIIa V allotype extracellular …; assay: as above
[25] = target: T5, human FcγRIa extracellular domain with …; assay: as above
[26] = target: T2, human FcγRIIa H allotype extracellular …; assay: as above
[27] = target: T6, human FcγRIIIa F allotype extracellular …; assay: as above
[28] = target: T7, human FcRn; assay: as above

Relative value to KD between G1m and hFcγRs [1]	Relative value to KD between G1m and hFcγRs [2]	Relative value to KD between G1m and hFcγRs [3]	Relative value to KD between G1m and hFcγRs [4]	Relative value to KD between G1m and hFcγRs [5]	Relative value to KD between G1m and hFcRn [6]	Kd [7]	Kd [8]	Kd [9]	Kd [10]	Kd [11]	Binding amount [12]	Relative binding amount [13]	Kd [14]	Kd [15]	Kd [16]	Kd [17]	Kd [18]	Kd [19]	Binding amount [20]	also measured	Binder
9	218	0.8	13.5	58.1	0.9	180 nM	4.4 nM	0.12 nM	99 nM	17 nM	0.014	1.7	2000 nM	–	–	–	–	–	–	–	B1
8.9	190	0.6	14.5	50.8	3.2	180 nM	5.1 nM	0.14 nM	92 nM	20 nM	0.012	1.5	540 nM	–	–	–	–	–	–	–	B2
–	–	–	–	–	–	–	–	–	–	–	–	–	–	160 nM	3.9 nM	0.15 nM	53 nM	17 nM	0.015	Relative binding amount [21]: 1.3; Kd [22]: 330 nM; Relative value to KD between G1m and hFcγRs [23]: 9.7; Relative value to KD between G1m and hFcγRs [24]: 225; Relative value to KD between G1m and hFcγRs [25]: 0.5; Relative value to KD between G1m and hFcγRs [26]: 20; Relative value to KD between G1m and hFcγRs [27]: 41.3; Relative value to KD between G1m and hFcRn [28]: 3	B3
–	–	–	–	–	–	–	–	–	–	–	–	–	–	86 nM	0.95 nM	0.061 nM	35 nM	2.7 nM	0.034	Relative binding amount [21]: 3; Kd [22]: 370 nM; Relative value to KD between G1m and hFcγRs [23]: 18.5; Relative value to KD between G1m and hFcγRs [24]: 930; Relative value to KD between G1m and hFcγRs [25]: 1.1; Relative value to KD between G1m and hFcγRs [26]: 30.8; Relative value to KD between G1m and hFcγRs [27]: 258; Relative value to KD between G1m and hFcRn [28]: 2.7	B4

Reference: patent US20260022175A1 (Chugai, published 2026)
